Laboratory results taken from patent US20220281965A1 (AstraZeneca / MedImmune, published 2022).

Columns and labels:
[1] = target: T1, biotinylated human H202D GDF-15 variant (human, UniProt Q99988 197-308, biotinylated, sites not stated); assay: HTRF binding assay, biotinylated antigen, titration of antibody
T1 construct: also called Human GDF-15 H202D
T1 chain: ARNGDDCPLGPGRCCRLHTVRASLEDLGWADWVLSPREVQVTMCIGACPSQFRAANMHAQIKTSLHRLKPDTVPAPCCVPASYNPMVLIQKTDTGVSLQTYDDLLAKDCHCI
From the text: (§1) Supernatants generated from the immunizations with human GDF-15 and purified IgGs were screened to identify IgGs with specific binding to human, cynomolgus, or mouse GDF-15. The HTRF (Homogeneous Time Resolved Fluorescence) assay is based on detection of a measurable FRET signal upon binding of a titration of test antibody to biotinylated human H202D GDF-15 variant, cynomolgus GDF-15 and mouse GDF-15. Europium cryptate (EuK) labelled Streptavidin and anti-human IgG XL665 (Cis Bio) were used as secondary detection reagents serving as energy donor and acceptor respectively. In the absence of test antibody binding, there is no detectable FRET fluorescence. When test antibody binds to GDF-15, the resulting physical proximity between the secondary reagent donor/acceptor pair results in FRET. FRET was measured ratiometrically [665 nm (acceptor)/620 nm (donor)] on an Envision plate reader, and data plotted using PRISM 6® software (Graphpad).

[2] = target: T2, biotinylated cynomolgus GDF-15 (cynomolgus, UniProt G7PWZ3 197-308, biotinylated, sites not stated); assay: as above
T2 construct: also called Cyno GDF-15
T2 sequence: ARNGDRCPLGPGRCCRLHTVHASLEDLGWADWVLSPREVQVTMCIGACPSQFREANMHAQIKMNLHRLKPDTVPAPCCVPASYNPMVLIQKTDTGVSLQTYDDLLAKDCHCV
From the text: as §1

mature human GDF-15 = target: T3, mature human GDF-15 (human, UniProt Q99988 197-308); assay: HTRF epitope competition; competitor DyLight 650 labelled Antibody A; Europium labelled human GDF-15
T3 construct: Homodimer; also called hGDF-15; recombinant hu-GDF15
T3 sequence: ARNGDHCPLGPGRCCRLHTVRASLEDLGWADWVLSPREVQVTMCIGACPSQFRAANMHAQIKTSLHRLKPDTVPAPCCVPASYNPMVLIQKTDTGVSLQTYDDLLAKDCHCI
From the text: Antibodies from the immunizations with human GDF-15, in the form of crude supernatants from the immunization or in the form of purified IgGs, were chosen on the basis that they bind and compete with an epitope recognized by a control anti-GDF-15 antibody “Antibody A”. A biochemical epitope competition format was applied using an HTRF epitope competition assay that measured the binding of DyLight 650 labelled Antibody A to Europium labelled human GDF-15 (Prospec). In the absence of Antibody A binding, there is no detectable FRET fluorescence. When Antibody A binds to GDF-15, the resulting physical proximity between the secondary reagent donor/acceptor pair results in FRET. Competition with an antibody that recognizes the same or similar epitope will result in a dose dependent reduction of the FRET signal. FRET was measured ratiometrically [665 nm (acceptor)/620 nm (donor)] on an Envision plate reader, and IC₅₀ values were determined by curve fitting the data to a four parameter logistic equation using PRISM 6® software (Graphpad).

[3] = target: T4, mature recombinant human GDF-15 with an N-terminal Flag and His tag, biotinylated (human, UniProt Q99988 197-308, chemically biotinylated with EZ link Sulfo-NHS-LC-Biotin, sites not stated); assay: SPR Biacore 8K, 25 C, biotinylated GDF-15 on streptavidin C1 chip, Fab as analyte
T4 construct: not shown: N-terminal Flag and His tags
T4 sequence: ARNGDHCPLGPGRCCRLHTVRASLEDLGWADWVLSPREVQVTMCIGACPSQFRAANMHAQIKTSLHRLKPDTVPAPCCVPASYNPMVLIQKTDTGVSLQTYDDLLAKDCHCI
Method: (§2) The experiments were carried out using mature recombinant human GDF-15, human GDF-15 H202D variant, mouse GDF-15, and cynomolgus GDF-15 with an N-terminal Flag and His tag. All species were chemically biotinylated using EZ link Sulfo-NHS-LC-Biotin (Thermo).
(§3) Streptavidin was covalently immobilized to a C1 chip surface using standard amine coupling techniques at a concentration of 4 μg/ml in 10 mM Sodium acetate pH 4.5. Recombinant biotinylated GDF-15 species were titrated onto the streptavidin chip surface in HBS-EP+ buffer to enable Fab binding.
(§4) Multiple buffer-only injections were made under the same conditions to allow for double reference subtraction of the final sensorgram sets, which were analyzed using Biacore 8K Evaluation Software. The chip surface was fully regenerated with pulses of 50 mM NaOH.

[4] = target: T5, mature recombinant human GDF-15 H202D variant with an N-terminal Flag and His tag, biotinylated (human, UniProt Q99988 197-308, chemically biotinylated with EZ link Sulfo-NHS-LC-Biotin, sites not stated); assay: as above
T5 construct: also called Human H202D; not shown: N-terminal Flag and His tags
T5 chain: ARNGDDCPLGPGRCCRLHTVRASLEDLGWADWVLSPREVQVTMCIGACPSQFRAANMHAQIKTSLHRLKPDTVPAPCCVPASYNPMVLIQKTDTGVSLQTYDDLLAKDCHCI
Method: as §2, §3, §4

[5] = target: T6, mature recombinant cynomolgus GDF-15 with an N-terminal Flag and His tag, biotinylated (cynomolgus, UniProt G7PWZ3 197-308, chemically biotinylated with EZ link Sulfo-NHS-LC-Biotin, sites not stated); assay: as above
T6 construct: not shown: N-terminal Flag and His tags
T6 sequence: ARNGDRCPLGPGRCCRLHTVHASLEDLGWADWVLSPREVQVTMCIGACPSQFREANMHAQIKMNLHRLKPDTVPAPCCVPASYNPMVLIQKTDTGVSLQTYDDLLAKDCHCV
Method: as §2, §3, §4

[6] = target: T7, mature recombinant mouse GDF-15 with Flag and His tags (mouse, UniProt Q9Z0J7 189-303); assay: as above
T7 construct: also called Flag tagged mouse GDF-15; not shown: FLAG and poly-His tags immediately C-terminal to the furin cleavage site (N-terminal on the mature protein)
T7 sequence: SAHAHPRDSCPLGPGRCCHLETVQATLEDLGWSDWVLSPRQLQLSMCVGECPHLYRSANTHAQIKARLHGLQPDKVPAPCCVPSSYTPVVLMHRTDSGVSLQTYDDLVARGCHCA
Method: as §2, §3, §4

| Binder | binding result [1] | binding result [2] | IC50 (mature human GDF-15) [nM] | Kd [3] [nM] | koff [3] [s⁻¹] | kon [3] [M⁻¹ s⁻¹] | Kd [4] [nM] | koff [4] [s⁻¹] | kon [4] [M⁻¹ s⁻¹] | Kd [5] [nM] | koff [5] [s⁻¹] | kon [5] [M⁻¹ s⁻¹] | Kd [6] [nM] | koff [6] [s⁻¹] | kon [6] [M⁻¹ s⁻¹] |
| --- | --- | --- | --- | --- | --- | --- | --- | --- | --- | --- | --- | --- | --- | --- | --- |
| AB1170019 (antibody, V domains shown) VH: EVQLQQSGPELVKPGASVKIPCKASGYTFTDYNMDWVKQSHGKSLEWIGDINPNNGGTFYNQKFKDKATLTVDKSSSTAYMELRSLTSEDTAVYYCAREEKLYFGLMDYWGQGTSVTVSS VL: DIQMTQSPASLSASVGETVTITCRASENIYSYLAWYQQKQGKSPQLLVYNAKTLAEGVPSRFSGSGSGIQFSLKINILQPEDFGNYYCQHQYGSPPTFGGGTKLEIK | binds | binds | 0.864 |  |  |  |  |  |  |  |  |  |  |  |  |
| AB1170242 Fab (Fab, V domains shown, Fab of the humanized antibody, expressed as in Spooner et al. 2015) VH: QVQLQESGPGLLKPSQTLSLTCTVSGFSLSTYGMGVGWIRQPAGKGLEWLANIWWNDDKYYNSALKSRLTISKDTSKNQVSLKLSSVTAADTAVYYCAQEVYGWFAYWGQGTLVTVSS VL: DIQMTQSPSTLSASVGDRVTITCKASQNVGTNVAWYQQKPGQPPKALIYSASYRYSGVPDRFSGSGSGTDFTLTISSLQAEDVAVYYCQQYNSYPLTFGQGTKLEIK |  |  |  | 3.22 | 0.0247 | 7.68e+06 | 3.13 | 0.0233 | 7.47e+06 | 2.88 | 0.0245 | 8.5e+06 | 908 | 0.826 | 903000 |
| AB1170249 Fab (Fab, V domains shown, Fab of the humanized antibody, expressed as in Spooner et al. 2015) VH: QVQLQESGPGLLKPSQTLSLTCTVSGFSLSTYGMGVGWIRQPLGKGLEWLANIWWNDDKYYNSALKSRLTISKDTSKNQVSLKLSSVTAADTAVYYCAQMAYSWFAYWGQGTLVTVSS VL: DIQMTQSPSFLSASVGDRVTITCKASQNMDTNVAWYQQKPGQPPKALIYSASYRYSGVPDRFSGSGSGTDFTLTISSLQAEDVAVYYCQQYNSYPFTFGQGTKLEIK |  |  |  | 3.13 | 0.0114 | 3.63e+06 | 3.04 | 0.0113 | 3.72e+06 | 3.11 | 0.0129 | 4.15e+06 | 1140 | 0.928 | 804000 |
| AB1520085 Fab (Fab, V domains shown, Fab of the anti-mouse GDF-15 mouse IgG1, expressed as in Spooner et al. 2015) VH: QVQLQQPGAELVMPGASVKMSCKASGYTFTDYWMHWVKQRPGQGLEWIGVIDTSESYTSYNQKFKGKATLTVDESSSTAYMQLSSLTSEDSAVYFCARGGTTVVLDYWGQGTTLTVSS VL: DIVMTQSQKFMSTSVGDRVSVTCKASQNVGTAVAWYQKKPGQSPKALIYSASTRYTGVPDRFTGSGSGTDFTLTISNVQSEDLAEYFCQQYSSSPWTFGGGTKLELK |  |  |  | 1.64 | 0.00489 | 2.97e+06 | 1.63 | 0.00478 | 2.92e+06 | 2.8 | 0.0078 | 2.79e+06 | 0.14 | 0.000244 | 1.75e+06 |
